Data published in patent publication US20250361326A1 (Hoffmann-La Roche, published 2025).

Legend:
VEGF [1] = molecular target: T1, VEGF (UniProt P15692-9 27-147); assay: bridging ELISA, VEGF coated, digoxygenin-Cy5 detection; binder has dig arm, no VEGF arm
T1 construct: also called VEGF121
T1 sequence (looked up): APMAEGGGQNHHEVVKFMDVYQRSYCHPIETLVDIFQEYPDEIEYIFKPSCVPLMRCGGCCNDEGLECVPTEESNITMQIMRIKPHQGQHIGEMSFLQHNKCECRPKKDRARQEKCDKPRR

VEGF [2] = molecular target: T1, VEGF; assay: bridging ELISA of exchange reaction mix, 1.3 µM input; VEGF coated, biocytinamid-Cy5 detection; highest value = 100%; binder has neither arm
VEGF [3] = molecular target: T1, VEGF; assay: bridging ELISA of exchange reaction mix, 1.3 µM input; VEGF coated, digoxygenin-Cy5 detection; highest value = 100%; binder has dig arm, no VEGF arm

B1: anti-dig/anti-fluos bispecific antibody (exchange reaction: dig MHCFcRP-knob-E357K row x fluos MHCFcRP-hole-K370E column) (bispecific antibody, human IgG1, not shown: small tags and cut ends)
heavy 1: QVQLVESGGGLVKPGGSLRLSCAASGFTFSDYAMSWIRQAPGKGLEWVSSINIGATYIYYADSVKGRFTISRDNAKNSLYLQMNSLRAEDTAVYYCARPGSPYEYDKAYYSMAYWGQGTTVTVSSASTKGPSVFPLAPSSKSTSGGTAALGCLVKDYFPEPVTVSWNSGALTSGVHTFPAVLQSSGLYSLSSVVTVPSSSLGTQTYICNVNHKPSNTKVDKKVEPKSC
light 1: not shown
heavy 2: not shown
light 2: DIVMTQTPLSLSVTPGQPASISCKSSQSLVHSNGNTYLRWYLQKPGQSPKVLIYKVSNRVSGVPDRFSGSGSGTDFTLKISRVEAEDVGVYYCSQSTHVPWTFGQGTKLEIKRTVAAPSVFIFPPSDEQLKSGTASVVCLLNNFYPREAKVQWKVDNALQSGNSQESVTEQDSKDSTYSLSSTLTLSKADYEKHKVYACEVTHQGLSSPVTKSFNRGEC
notes: Product of the 2/3-IgG exchange reaction, tested as reaction mix; human IgG1 knob-into-hole format; also called dig/fluos bsAb
binding result (VEGF [1]): no binding (tested: 1.3 µM input molecule concentration) | relative signal intensity (VEGF [2]): 9.1% | relative signal intensity (VEGF [3]): 6.7%
